Results published in the DeepSol protein solubility set.

Assay: soluble on expression in E. coli; label from the status in PepcDB or PDB records

Sequence | soluble on expression in E. coli
MGQFILEIYKIRIVSQTHLFSKLIFHSFLSFLFNDFSHLSASLPPLIDLSTKKKLLARASEGATSSSSPLPPASTATLSAFRPPARMIPPPVVLPQQYAPLPGFTPLLPAQAMMANFPPNALYQLGTPPFENGNNRIRFKDAAMVVLSRLSFNQRRLDNAHQ | not soluble
AIAFILSAQRLSGTQVFRRLAEGCTGYSVSSGCRQRRRCCPGAPQRPRRVRVNALQLQSGLADPLDPKSEAEVREHLRSNSPAERALGINYARYLDESTRYDILLEMMEDTDPQVRYAAVTQLATVGSHDRQRTLKAVRKILWNTEEDASVRAGALTCWAVSGSTRPSQTWKSSSTSRRTGWCGSASSLL | soluble
MGSDKIHHHHHHMSALYQALPAVDKLLKTPQGEQLVAEFGHSATVNMCRDLLQQAREHIKRHENLPHFLQNTDATFQHLKEQLLLQQQVNIKTVHNLTGTVLHTNLGRALWSPAAQQAALDAMQGNVALEYDLSAGERSHRDNYISALMQQLTGAEAACVVNNNAAAVLLMLATFAQGKEVIISRGELIEIGGAFRIPDIMAQAGCKLVEVGTTNRTHLKDYRNAINENTAFLMKVHSSNYQICGFTHSVDEQELADLGKEFGIPVITDLGSGALMDLKQFGLPEEPTVQEKLQHGVDLISFSGDKLLGGPQAGIIVGKKALIQQLQAHPLKRVLRCDKVTLAGLEATFRLYLQPEKITEKLTALLLLTQPMERLQAQAEQLKVRLENRLNTNYVIAIEPSEAQIGSGSQPLARIPSVAVTIAPASEKTPAKTTALFARLLALPQPVIGRIERDKIWLDLHSLASLDRLLNSLETL | not soluble
MDLSIFKNARAKPVPRPAPAGAASGLHDPLAPTIFHEAWWLDASAPDGWSETLVRADNRIVGRLPYMILRKPFGQTSCEMPKFAHFLGPAVAPGPGARANRALKEAQIVRELHEQLPPTGNLYMRMHRGVTDTMVHAEAGLHMLVNFTFEIAPGCEQAIWAGMRDKTRNIIRRAQEKHCVSDTLDPRDFAACYRRNVDEAGHESYYETDEIVRVCTAALERGRGRILSATGPDGGLAAAIFTIWDATSCYYLLATRSRGEDHGATSLLLWEAIRHANRMGLIFDFDGLYTRGNRVFFTGFGGTVHPRYVVCGSTRTYRATAALSKALSRLRRP | not soluble
MSLPHALIVEDDPNSLSGLSAILAADGFSVDTATTIAEARAALTRFIPDVVLVDLNLPDGSGLDLLQHLPAHPPGGALPVIVMTGNATVESAIEGLRHGIWDYLLKPVNIPRLRSLLARIPRPYELTEEVQTLRASLRQLGRFGSMLGRSGAIQHVYDTIEHIAPTEAAVLISGETGTGKQIAARTMHDMSRRRKGPFITFDCRSANSAGVQRSLDSLLFGHERGAFNGAEQREPGLFEQASGGTLFIEEIAELPRAQQEALLRALDSQTFMRVGGTNQVVTDFRLIASTRKAPRAAVADGSLHEDLALRLEAAAVTLPPLRERGEDPALIAQAVVDELNHEGLTRGSAESAKQVAPNFLRECLAYEWPGNVRELQDRVRRAYHASGDVLESLRADEAGSEGHHHHHH | soluble
VGRATQSAKELDVKIKNVIRNVHILLKQISGTDGEGNNVPSGDFSREWAEAQRMMRELRNRNFGKHLREAEADKRESQLLLNRIRTWQKTHQGENNGLANSIRDSLNEYEAKLSDLRARLQEAAAQAKQANGLNQENERALGAIQRQVKEINSLQSDFTKYLTTADSSLLQTNIALQLMEKSQKEYEKLAASLNEARQELSDKVRELSRSAGKTSLVEEAEKHARSLQELAKQLEEIKRNASGDELVRCAVDAATAYENILNAIKAAEDAANRAASASESALQTVIKEDLPRKAKTLSSNSDKLLNEAKMTQKKLKQEVSPALNNLQQTLNIVTVQKEVIDTNLTTLRDGLHGIQRGDIDAMISSAKSMVRKANDITDEVLDGLNPIQTDVERIKDTYGRTQNEDFKKALTDADNSVNKLTNKLPDLWRKIESINQQLLPLGNISDNMDRIRELIQQARDAASKVAVPMRFNGKSGVEVRLPNDLEDLKGYTSLSLFLQRPNSRENGGTENMFVMYLGNKDASRDYIGMAVVDGQLTCVYNLGDREAELQVDQILTKSETKEAVMDRVKFQRIYQFARLNYTKGATSSKPETPGVYDMDGRNSNTLLNLDPENVVFYVGGYPPDFKLPSRLSFPPYKGCIELDDLNENVLSLYNFKKTFNLNTTEVEPCRRRKEESDKNYFEGTGYARVPTQPHAPIPTFGQTIQTTVDRGLLFFAENGDRFISLNIEDGKLMVRYKLNSELPKERGVGDAINNGRDHSIQIKIGKLQKRMWINVDVQNTIIDGEVFDFSTYYLGGIPIAIRERFNISTPAFRGCMKNLKKTSGVVRLNDTVGVTKKCSEDWKLVRSASFSRGGQLSFTDLGLPPTDHLQASFGFQTFQPSGILLDHQTWTRNLQVTLEDGYIELSTSDSGGPIFKSPQTYMDGLLHYVSVISDNSGLRLLIDDQLLRNSKRLKHISSSRQSLRLGGSNFEGCISNVFVQRLSLSPEVLDLTSNSLKRDVSLGGCSLNKPPFLMLLKGSTRFNKTKTFRINQLLQDTPVASPRSVKVWQDACSPLPKTQANHGALQFGDIPTSHLLFKLPQELLKPRSQFAVDMQTTSSRGLVFHTGTKNSFMALYLSKGRLVFALGTDGKKLRIKSKEKCNDGKWHTVVFGHDGEKGRLVVDGLRAREGSLPGNSTISIRAPVYLGSPPSGKPKSLPTNSFVGCLKNFQLDSKPLYTPSSSFGVSSCLGGPLEKGIYFSEEGGHVVLAHSVLLGPEFKLVFSIRPRSLTGILIHIGSQPGKHLCVYLEAGKVTASMDSGAGGTSTSVTPKQSLCDGQWHSVAVTIKQHILHLELDTDSSYTAGQIPFPPASTQEPLHLGGAPANLTTLRIPVWKSFFGCLRNIHVNHIPVPVTEALEVQGPVSLNGCPDQ | soluble
EHEICAGETGVPLATDTIMLSRQVSFDRIRLLSGVSNDELQLLNPQYKRGIIPGNTQLCRLRLPVASIKKLDKVRDSLYSPDLEASVSDFPEQGGQHSGGSGRTAIFHNVKQGETLLSIAKRYGTTVAAIKRANGLKSSSVKPGQRLQITKSSASGTKKKSKYSAKRKSRRRK | not soluble
GPGSMPPKKGKKLKKKVKLQVPPQYEEQISKEPVSDPPTSQQSITSLPISVVEAALAVEESPEEDIVTFGAEALNRLLSMRHPQQIAADLTRSLSSLRQRLAQLEMEWLGFESSAVGSTYACRARDQKDKLEHEVRKTEKMTRHLILLGRVLDRIFELRTSVFDTERTAMEAEVEELTKRVEKNDEEIRSCYINRISLLHRYWVWRTLQELGDMTVGRTFAEELARGPRYRSIAIQNRILSDTLERQLEWLQRFLEKEEVFCGRVRQLERFVEEFTDMNDALEEVLTCRVCNLLFEDPVVFWPCGHSFCLQCFDSLSVAPSLFRCPLCGSMGSEGYVHNLLLSESVAKWMFKDACYADVHGALSLVRLHLSKFRRNIISSRMEQLEERLTAERGRELASDTLDDMDIVYRAY | not soluble
MGSDKIHHHHHHVEQTQTRVYQYKFVNSISNIDSLIWNIFFGSSHPFTRHEYLSALEMSRCVSTETGWTPMHLIVMDGDNIIALMPLYLKSHSWGEYVFDWAWAEAYERHNIGYYPKLVGSIPFTPTTGRRIGIDPRLPKHDQQPLIDGIQTYLSQTVIKQGWSSWHCLFTNTEQHLQFAQAGVMERVGCQFHWHNQNYADFNDFLSTLTSRKRKNITKERISARQQLQFRFIDGDKASAQQWQNFVRCYQNTYLKRSGHKGYLSAAFFEQIAATMGSMIRLLLIENSDAQLVASALYFVSDTHLYGRYWGALTECDYVHFEACYYQGIEYAIANQLLVFDAGAQGEHKVARGFRPVKTTSSHFVAHEGFNDAIGAFCQQEQAHIDIYIQQMCEQLPYKSIDNT | not soluble
MGSDKIHHHHHHMLMETTRLLDIRSMSVEFPGVKALDQVDFTLNRGEIVALLGENGAGKSTLIKALTGVYHRSSGDIILDGIAINPVNTAHAQSLGIGTVYQEVNLLPNLSVAANLFIGREPTRWGIVDQHKILLQAEALLLNYGLAIDVSHPLGNYSIAVQQIVAIARAVDLSAKVLILDEPTASLDAKEVDMLLDILRKLRDRGIGMIFVTHFLDQVYRISDRITVLRNGRLVGTLPTAELPRIELVQMMLGHSFDETLLKRGEHSDVSGEPIVQFKHYGRRGSINDFELSVRPGEIVGLAGLLGSGRTETAQLIFGINVPDAGEAWVDGKKINIRTPRAAGKLGFGYCPEDRKTDGIVGAATVRENIILALQAQRGWLKPISLREQTRIAEKFISLLGIRTPSAEQEIQYLSGGNQQKVLLSRWLATEPRFLILDEPTRGIDVGAHAEIIRLIEKLCEQGMALLVISSELEELTGYADRIIVLRDRQHVAHLEHSEISVAAVMQAIAVQTGAADDRQ | not soluble
